The target in test [1] is extracellular domain of human LEPR with an N-terminal myc-myc tag, GPI-anchored on HEK293 cells (human) (UniProt P48357). Put plainly: FACS, secondary alone, HEK293/hLEPR-GPI, with 1 µM Leptin.
Test [2] has the same target. Put plainly: FACS, secondary alone, HEK293/hLEPR-GPI, no added Leptin.

Data on two substances can be found in patent publication US12715927.

Chain of extracellular domain of human LEPR with an N-terminal myc-myc tag, GPI-anchored on HEK293 cells (human) (P48357 22-839 limits assumed): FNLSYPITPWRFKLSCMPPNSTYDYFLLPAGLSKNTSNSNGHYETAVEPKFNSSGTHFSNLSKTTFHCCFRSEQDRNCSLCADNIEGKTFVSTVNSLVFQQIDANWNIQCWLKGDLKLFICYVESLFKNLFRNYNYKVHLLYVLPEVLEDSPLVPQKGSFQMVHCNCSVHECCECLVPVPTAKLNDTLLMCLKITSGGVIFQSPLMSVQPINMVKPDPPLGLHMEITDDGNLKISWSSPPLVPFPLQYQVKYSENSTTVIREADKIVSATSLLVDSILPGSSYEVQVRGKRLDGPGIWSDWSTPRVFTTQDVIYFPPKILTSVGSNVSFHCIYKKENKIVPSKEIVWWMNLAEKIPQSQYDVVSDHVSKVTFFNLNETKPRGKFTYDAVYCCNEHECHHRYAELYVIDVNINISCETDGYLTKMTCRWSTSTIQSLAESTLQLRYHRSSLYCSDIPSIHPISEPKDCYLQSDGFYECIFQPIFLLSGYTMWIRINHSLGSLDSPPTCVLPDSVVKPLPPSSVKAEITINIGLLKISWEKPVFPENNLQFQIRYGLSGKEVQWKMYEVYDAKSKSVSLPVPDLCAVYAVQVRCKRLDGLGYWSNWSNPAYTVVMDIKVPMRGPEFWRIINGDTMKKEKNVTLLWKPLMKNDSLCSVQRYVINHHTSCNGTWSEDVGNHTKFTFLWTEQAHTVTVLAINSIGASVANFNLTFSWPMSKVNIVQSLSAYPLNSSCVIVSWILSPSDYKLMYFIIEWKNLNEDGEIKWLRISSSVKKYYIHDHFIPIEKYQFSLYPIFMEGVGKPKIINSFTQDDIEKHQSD

For the substance Anti-mouse IgG secondary antibody alone, the Binding Ratio in test [1] and in test [2] was 2 fold each time.
Anti-human IgG secondary antibody alone: the Binding Ratio in test [1] and in test [2] was 3 fold in each case.
